Data reported in CN105061596A (JIANGSU NOVOMAB BIOPHARMACEUTICAL INC, dated 2015).
Values belong to the binder of their own block, whether it stands above or below them.

Legend:
[1] = target: T1, Blys (human, UniProt Q9Y275 134-285, limits assumed); assay: SPR, Biacore T200, antibody captured by goat anti-human IgG on a CM5 chip, 300 nM BLYS as analyte
T1 construct: Unlabelled Blys as used as the analyte in Biacore (300 nM) and in the mouse splenocyte proliferation assay (3 ng/ml); also called BAFF; B淋巴细胞刺激因子

[2] = target: T1, Blys; assay: cell-based or functional assay
[3] = target: T2, Blys-His融合蛋白(含6×His标签) (human, UniProt Q9Y275 134-285); assay: ELISA, Blys-His coated, 1:4 serial dilutions of antibody, mouse anti-human IgG-HRP
T2 construct: Expressed in CHO-K1 cells and purified on a Ni column; The background says that Blys acts as a homotrimer and that residues 133-285 are the main functional region; also called 重组人BLYS; not shown: 6×His tag

- Kd [1]: 1.37 nM
- 抑制Blys刺激的鼠脾细胞增殖 IC50 [2]: 8.25 ng/mL
B1: Belimumab (antibody, V domains shown)
VH: QVQLQQSGAEVKKPGSSVRVSCKASGGTFNNNAINWVRQAPGQGLEWMGGIIPMFGTAKYSQNFQGRVAITADESTGTASMELSSLRSEDTAVYYCARSRDLLLFPHHALSPWGRGTMVTVSS
VL: SSELTQDPAVSVALGQTVRVTCQGDSLRSYYASWYQQKPGQAPVLVIYGKNNRPSGIPDRFSGSSSGNTASLTITGAQAEDEADYYCSSRDSSGNHWVFGGGTELTVLG

- EC50 [3]: 0.0292 nM
B2: NMB01 (antibody, V domains shown)
VH: EVQLVESGGGLVQPGGSLRLSCAASGFTFSTFGMNWVRQAPGKGLEWVSYISSGSSTIYYADTVKGRFTISRDNAKNSLYLQMNSLRAEDTAVYYCARLGDPLLRPKGNAMDYWGQGTLVTVSS
VL: DIQMTQSPSSLSASVGDRVTITCLASQTIGTWLAWYQQKPGKAPKLLIYAATRKADGVPSRFSGSGSGTDFTLTISSLQPEDFATYYCQQLYSSPWTFGGGTKVEIK
